This is an account of results in publication PMC13071878, “Yeast Display Technology Enables Rapid Discovery of Low-Nanomolar Macrocyclic Peptide Inhibitors of Human Angiotensin-Converting Enzyme 2” (Journal of Medicinal Chemistry, 2026).

One data set concerns the target T1, hACE1 (Homo sapiens, UniProt P12821).
T1 construct: purchased R&D Systems
Briefly: biochemical.

The nature of data set [1]: Plasma stability of synthetic peptides (LC-MS). Conditions: 37 °C; for half-life: human, plasma, plasma half-life t1/2, human plasma, 10 μM, LC-MS, n = 2. Here is the method: The mixtures were incubated at 37 °C in a water bath (VWR, Pennsylvania, PA, USA). At designated time points (0, 0.25, 0.5, 1, 2, 4, 8, 24, and 48 h), 100 μL aliquots were withdrawn and quenched with 100 μL of 100% v/v ACN. Following centrifugation (10 min at 15000 g, 4 °C), 100 μL of the supernatant was collected and diluted with 50 μL of solvent A (99.9% v/v H2O and 0.1% v/v FA). Samples were characterized by LC–MS using an Agilent 1260 Infinity II LC system coupled to an InfinityLab LC/MSD mass spectrometer (Agilent Technologies, Santa Clara, CA, USA). The system operated with a standard ESI source in negative ionization mode. Separation was performed on a reversed-phase Symmetry C18 column (5 μm, 150 mm × 4.6 mm, Waters, Milford, MA, USA) using a linear gradient of 10–100% solvent B over 22 min at a flow rate of 0.6 mL/min (Solvent A: 99.9% v/v H2O and 0.1% v/v FA; Solvent B: 99.9% v/v ACN and 0.1% v/v FA). Data acquisition, processing, and analysis were performed using MestReNova v.12.0.1 (Mestrelab Research, Santiago de Compostela, Spain). All samples were analyzed in duplicate (n = 2). The percentage of remaining peptide was calculated by integrating the peak areas, with the area at 0 h defined as 100%. Half-lives (t 1/2) were determined via nonlinear regression analysis using GraphPad Prism (GraphPad software Inc., San Diego, CA, USA). Data are presented as mean values ± s.d.

Data set [2] deals with T2, hACE2 (Homo sapiens, UniProt Q9BYF1). Description: Isothermal titration calorimetry of synthetic MPs with hACE2. Conditions: 25 °C; for -TΔS (ITC): calculated. It counts as binding. The procedure: Isothermal titration calorimetry (ITC) experiments were performed at 25 °C using a MicroCal iTC200 instrument ([…], Malvern Panalytical, Malvern, UK). The hACE2 protein (initial stock 11 mg/mL, 20 mM Tris pH 7.4, 200 mM NaCl) was diluted into the assay buffer (100 mM Tris pH 7.4, 200 mM NaCl) to a final concentration of 5 μM. […] Titrations consisted of an initial 0.4 μL injection (excluded from subsequent data analysis), followed by 18 injections of 2 μL each, with a stirring rate of 750 rpm to ensure rapid mixing. A 120 s interval was maintained between injections to ensure the baseline returned to equilibrium. Blank experiments involving the titration of the synthetic MPs into the assay buffer were performed to determine and subtract the heats of dilution. Data processing was conducted using the Origin software package version 7 (OriginLab Corporation, Northampton, MA, USA). The integrated heat signals were fitted to a single-site binding model to determine the association constant (K A), the dissociation constant ([…]), the enthalpy change (ΔH), and the binding stoichiometry (n). The Gibbs free energy (ΔG) and the entropy change (ΔS) were calculated using the standard thermodynamic relationship: ΔG=ΔH−TΔS=−RTln(KA)

The target of data set [3] is T2, hACE2. Description: Grating-coupled interferometry of synthetic MPs on immobilized hACE2. The settings on record: synthetic MP, immobilized hACE2, 25 °C, pH 7.4, n = 1; read-out: KD (GCI). It counts as binding.
Method: Measurements were performed using a Creoptix WAVEsystem and a 4PCH-STA WAVEchip (Creoptix, Malvern Panalytical, Malvern, UK). Prior to immobilization, all four flow channels were conditioned with 100 mM sodium borate, 1 M NaCl buffer pH 9.0, for 180 s at 10 μL/min, followed by three start-up cycles (3 cycles of 60 s at 10 μL/min) in running buffer (1X PBS pH 7.4 supplemented with 0.005% v/v Tween-20). Biotinylated hACE2 (10 μg/mL in running buffer) was captured on the chip surface with a 420 s injection cycle at 10 μL/min, achieving a target immobilization level of approximately 1000 pg/mm^2 surface mass per flow cell. Excess of unbound hACE2 was removed by washing with running buffer for 60 s at 10 μL/min. Binding experiments were conducted using regeneration-free kinetics (RFK). Seven serial 2-fold dilutions of each synthetic MP (2.5, 5, 10, 20, 40, 80, and 160 nM in running buffer) were injected at 25 °C with a continuous flow rate of 60 μL/min. Each MP concentration was allowed to associate for 60 s and dissociate for 45 s, with a final dissociation phase of 300 s monitored after the highest concentration. Response signals were double-referenced by subtracting the signal from an unmodified reference channel (untreated flow cell without hACE2 protein) and the signal from blank buffer injections to correct for bulk refractive index changes and systematic artifacts.
The target in data set [4] is T2, hACE2. Description: biochemical.
Method: The activity assay was performed by incubating 0.25 nM of hACE2 with 50 μM fluorogenic substrate Mca-Ala-Pro-Lys­(Dnp)–OH (MedChemExpress, Monmouth Junction, NJ, USA) and 3-fold MP dilutions (ranging from 0.03 nM to 100 μM). […] All reagents were diluted in 10 mM Tris–HCl, pH 7.4, 300 mM NaCl, 100 μM ZnCl2, 0.1% w/v BSA, and 0.1% v/v DMSO assay buffer. The measurements were performed on a Berthold TriStar LB 941 microplate reader (Berthold Technologies, Bad Wildbad, Germany) using flat-bottom 96-well half area Corning Costar plates (Corning, New York, USA). The enzymatic reactions were performed at 25 °C for 90 min, under shaking with a maximum excitation wavelength (λex) of 320 nm and maximum emission wavelength (λem) of 405 nm. The initial velocities were monitored as changes in fluorescence intensity. Half-maximum inhibitory concentration (IC50) values were determined using GraphPad Prism v8.2.1 software (GraphPad software Inc., San Diego, CA, USA). […] Fluorescence was recorded as described earlier (λex = 320 nm, λem = 405 nm) using a Berthold TriStar LB 941 microplate reader (Berthold Technologies, Bad Wildbad, Germany). Initial velocities (V 0) were plotted against substrate concentrations [S] and analyzed via nonlinear regression using a one-site specific binding model using GraphPad Prism v8.2.1 software (GraphPad software Inc., San Diego, CA, USA). […]
Data set [5] deals with mouse model of induced colitis. Also noted: method as in ref 26 (Byrnes et al. 2009). The settings on record: 300 mg/kg twice daily, citation mark lost in text, ref 26 (Byrnes et al. 2009); cited from earlier work.
Data set [6] addresses T2, hACE2. Type of data set: binding. Conditions: yeast-displayed MP, serial dilutions of biotinylated hACE2.
The target of data set [7] is T2, hACE2. Also noted: method as in ref 4 (SI list; Huang et al. 2003). Conditions: phage display DX peptides, ref 4 (SI list; Huang et al. 2003), cited from earlier work; for Ki: where not reported, calculated by Cheng-Prusoff, Km 23 μM.
In data set [8] the target is T2, hACE2. On the set-up: method as in ref 4 (SI list; Huang et al. 2003). The settings on record: phage display DX peptides; ref 4 (SI list; Huang et al. 2003); cited from earlier work.

Read-outs that look alike come from different tables or passages of the source.

T1 sequence (P12821 30-1306): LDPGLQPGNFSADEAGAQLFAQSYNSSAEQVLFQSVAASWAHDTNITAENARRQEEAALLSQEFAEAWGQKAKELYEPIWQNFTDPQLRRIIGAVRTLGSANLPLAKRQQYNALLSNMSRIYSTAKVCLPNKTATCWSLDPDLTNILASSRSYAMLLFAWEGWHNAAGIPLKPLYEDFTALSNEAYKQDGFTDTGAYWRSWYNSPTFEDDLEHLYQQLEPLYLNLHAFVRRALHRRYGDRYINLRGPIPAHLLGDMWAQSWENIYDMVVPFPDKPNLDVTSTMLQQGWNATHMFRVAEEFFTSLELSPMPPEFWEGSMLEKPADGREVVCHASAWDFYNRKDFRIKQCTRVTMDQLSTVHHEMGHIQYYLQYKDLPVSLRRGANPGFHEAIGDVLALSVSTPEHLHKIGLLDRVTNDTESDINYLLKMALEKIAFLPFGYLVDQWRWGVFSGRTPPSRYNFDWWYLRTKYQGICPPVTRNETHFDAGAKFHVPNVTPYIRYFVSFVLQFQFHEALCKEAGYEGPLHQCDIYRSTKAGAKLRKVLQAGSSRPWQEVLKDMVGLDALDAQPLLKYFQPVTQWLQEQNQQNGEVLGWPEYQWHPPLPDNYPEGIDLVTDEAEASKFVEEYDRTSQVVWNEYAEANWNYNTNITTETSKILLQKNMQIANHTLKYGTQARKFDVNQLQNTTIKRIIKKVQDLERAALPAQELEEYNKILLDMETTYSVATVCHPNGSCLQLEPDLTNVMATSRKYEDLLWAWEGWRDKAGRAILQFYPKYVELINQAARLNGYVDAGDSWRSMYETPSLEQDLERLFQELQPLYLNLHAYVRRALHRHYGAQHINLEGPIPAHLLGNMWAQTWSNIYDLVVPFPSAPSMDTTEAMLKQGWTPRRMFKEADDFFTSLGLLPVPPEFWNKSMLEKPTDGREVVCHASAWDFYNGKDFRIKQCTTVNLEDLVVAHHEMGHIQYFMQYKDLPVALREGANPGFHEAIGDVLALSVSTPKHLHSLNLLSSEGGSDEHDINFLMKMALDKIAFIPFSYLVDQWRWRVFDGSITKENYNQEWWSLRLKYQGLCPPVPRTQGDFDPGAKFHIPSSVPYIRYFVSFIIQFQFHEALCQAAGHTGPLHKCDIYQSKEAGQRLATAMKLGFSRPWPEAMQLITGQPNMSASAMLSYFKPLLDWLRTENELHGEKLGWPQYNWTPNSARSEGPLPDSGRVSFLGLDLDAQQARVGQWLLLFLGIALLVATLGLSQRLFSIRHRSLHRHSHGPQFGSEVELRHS
T2 sequence (Q9BYF1 19-615): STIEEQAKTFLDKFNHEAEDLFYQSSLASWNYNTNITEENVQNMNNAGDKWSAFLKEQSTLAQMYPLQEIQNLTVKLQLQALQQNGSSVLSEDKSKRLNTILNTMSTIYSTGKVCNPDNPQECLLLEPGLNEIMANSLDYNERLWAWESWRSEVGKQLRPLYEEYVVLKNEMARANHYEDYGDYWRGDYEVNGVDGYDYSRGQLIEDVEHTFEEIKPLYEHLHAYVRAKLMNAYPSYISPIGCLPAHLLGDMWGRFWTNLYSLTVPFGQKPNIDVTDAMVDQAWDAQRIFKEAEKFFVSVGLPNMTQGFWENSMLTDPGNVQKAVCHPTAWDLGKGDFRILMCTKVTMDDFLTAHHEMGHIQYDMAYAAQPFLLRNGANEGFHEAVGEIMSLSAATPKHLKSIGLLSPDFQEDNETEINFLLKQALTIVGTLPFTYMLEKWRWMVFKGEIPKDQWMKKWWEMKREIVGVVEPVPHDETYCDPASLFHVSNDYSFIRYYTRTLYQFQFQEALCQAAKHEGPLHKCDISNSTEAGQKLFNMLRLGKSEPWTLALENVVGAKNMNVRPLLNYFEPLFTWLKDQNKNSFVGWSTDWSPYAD
Method for hACE1: The activity assay was performed by incubating 0.25 nM of hACE2 with 50 μM fluorogenic substrate Mca-Ala-Pro-Lys­(Dnp)–OH (MedChemExpress, Monmouth Junction, NJ, USA) and 3-fold MP dilutions (ranging from 0.03 nM to 100 μM). […] All reagents were diluted in 10 mM Tris–HCl, pH 7.4, 300 mM NaCl, 100 μM ZnCl2, 0.1% w/v BSA, and 0.1% v/v DMSO assay buffer. The measurements were performed on a Berthold TriStar LB 941 microplate reader (Berthold Technologies, Bad Wildbad, Germany) using flat-bottom 96-well half area Corning Costar plates (Corning, New York, USA). The enzymatic reactions were performed at 25 °C for 90 min, under shaking with a maximum excitation wavelength (λex) of 320 nm and maximum emission wavelength (λem) of 405 nm. The initial velocities were monitored as changes in fluorescence intensity. Half-maximum inhibitory concentration (IC50) values were determined using GraphPad Prism v8.2.1 software (GraphPad software Inc., San Diego, CA, USA). […] Reactions were initiated by adding hACE2 (final concentration 0.25 nM) to the fluorogenic substrate in assay buffer at 25 °C. Fluorescence was recorded as described earlier (λex = 320 nm, λem = 405 nm) using a Berthold TriStar LB 941 microplate reader (Berthold Technologies, Bad Wildbad, Germany). Initial velocities (V 0) were plotted against substrate concentrations [S] and analyzed via nonlinear regression using a one-site specific binding model using GraphPad Prism v8.2.1 software (GraphPad software Inc., San Diego, CA, USA). […] All reagents were diluted in 10 mM Tris-HCl, pH 7.4, 300 mM NaCl, 100 μM ZnCl2, 0.1% w/v BSA, and 0.1% v/v DMSO buffer. Measurements and data analysis were performed as mentioned above.

On hACE1, `CC[C@H](C)[C@@H]1NC(=O)[C@H](Cc2ccccc2)NC(=O)[C@H](Cc2ccccc2)NC(=O)[C@@H](NC(=O)[C@H](C)N)CSSC[C@@H](C(=O)N[C@@H](CO)C(=O)NCC(N)=O)NC(=O)[C@H]([C@@H](C)CC)NC(=O)[C@H](Cc2c[nH]c3ccccc23)NC(=O)[C@H](CCCNC(=N)N)NC(=O)[C@H](CC(N)=O)NC(=O)[C@H](Cc2ccccc2)NC(=O)CNC1=O` [GR1.1] displayed an IC50 of over 100000 nM and a Ki of over 100000 nM. In data set [1], this molecule gave a half-life of 5.4 h.
`CC(C)C[C@@H]1NC(=O)[C@H](CC(N)=O)NC(=O)[C@H](Cc2ccc(O)cc2)NC(=O)CNC(=O)[C@H](CC(C)C)NC(=O)[C@@H]2CCCN2C(=O)[C@H](CCC(=O)O)NC(=O)[C@@H](NC(=O)[C@H](C)N)CSSC[C@@H](C(=O)N[C@@H](CO)C(=O)NCC(N)=O)NC(=O)[C@H](CC(C)C)NC(=O)[C@H](Cc2ccccc2)NC1=O` [GR1.4]: on hACE1, the IC50 was over 100000 nM and the Ki was over 100000 nM. This molecule also had a half-life in [1] of 6.5 h. Also, on hACE2 [2], the “ΔH (ITC)” value was -8.01 ± 0.12 kcal/mol and the “-TΔS (ITC)” value is -1.94 kcal/mol.
In the case of `CC(C)C[C@@H]1NC(=O)[C@H](Cc2ccccc2)NC(=O)[C@@H](NC(=O)[C@H](C)N)CSSC[C@@H](C(=O)N[C@@H](CO)C(=O)NCC(N)=O)NC(=O)[C@H](Cc2c[nH]c3ccccc23)NC(=O)[C@H](CC(C)C)NC(=O)[C@H](Cc2c[nH]c3ccccc23)NC(=O)[C@@H]2CSSC[C@H](NC(=O)[C@H](CCCNC(=N)N)NC1=O)C(=O)N[C@@H](Cc1c[nH]cn1)C(=O)N[C@@H](CCCNC(=N)N)C(=O)N[C@@H](CC(=O)O)C(=O)N[C@@H](C(C)C)C(=O)N[C@@H](CCCCN)C(=O)N2` [GR3.1.2], on hACE1, the half-maximal inhibitory concentration (IC50) is over 100000 nM and the inhibition constant (Ki) is over 100000 nM. Moreover, on hACE2 [3], the Kd stood at 4.1 nM. On hACE2 [4], the Ki stood at 1.5 nM. In data set [1] (human plasma), the “t1/2 times longer than GR1.1” value worked out at 1.5 times and the “t1/2 times longer than GR1.4” value is 1.3 times. The half-life in data set [1] was 8.6 h. Moreover, on hACE2 [2], the “ΔH (ITC)” value was -8.15 ± 0.14 kcal/mol and the “-TΔS (ITC)” value is -1.96 kcal/mol.
On to `CC(C)C[C@@H]1NC(=O)[C@H](Cc2ccccc2)NC(=O)[C@@H](NC(=O)[C@H](C)N)CSSC[C@@H]2NC(=O)[C@H](CCCCN)NC(=O)[C@H](C(C)C)NC(=O)[C@H](CC(=O)O)NC(=O)[C@H](CCCNC(=N)N)NC(=O)[C@H](Cc3c[nH]cn3)NC(=O)[C@H](CSSC[C@@H](C(=O)N[C@@H](CO)C(=O)NCC(N)=O)NC(=O)[C@H](Cc3c[nH]c4ccccc34)NC(=O)[C@H](CC(C)C)NC(=O)[C@H](Cc3c[nH]c4ccccc34)NC2=O)NC(=O)[C@H](CCCNC(=N)N)NC1=O` [GR3.1.3], for which affinity at hACE2 [4] was put at a Ki of 1040 nM.
Consider `CC(C)C[C@H](N[C@@H](Cc1cncn1Cc1cc(Cl)cc(Cl)c1)C(=O)O)C(=O)O` [MLN-4760], for which, in data set [5], the “effect on disease severity” value is “reduce disease severity”.
As for ACEPAGYNLFLCSG [GR1.6], the “binding to hACE2 in yeast surface titration (in words)” value (“binding to hACE2” for short) with hACE2 [6] is “completely abolished”.
On to ACEPLAYNLFLCSG [GR1.7], for which, in the data set with hACE2 [6], the “binding to hACE2” value is given as “completely abolished”.
As to ACEPLGANLFLCSG [GR1.8], the “binding to hACE2” value in the data set with hACE2 [6] is “completely abolished”.
Regarding “ACEPLGFNRWICSG [GR1.3, yeast-encoded “one-ring” macrocyclic peptide, GR1 family]”, in the data set with hACE2 [6], the “binding to hACE2” value is given as “comparable binding affinities”.
Consider ACEPLGYALFLCSG [GR1.9], for which the “binding to hACE2” value in the data set with hACE2 [6] is listed as “significantly attenuated”.
With GDFSPCKALRHSPWWVCPSGDP [DX602], in the data set with hACE2 [7], the half-inhibitory concentration (IC50) was 128 nM and the Ki is 121 nM. Moreover, the equilibrium dissociation constant (Kd) in the data set with hACE2 [8] is 74.4 nM.
GDGFTCSPIRMFPWFRCDLGDP [DX601]: in the data set with hACE2 [7], the half-maximal inhibitory concentration (IC50) is 56.8 nM and the Ki was 30.9 nM. For the same molecule, the Kd in the data set with hACE2 [8] is 56.3 nM.
For the molecule GDLHACRPVRGDPWWACTLGDP [DX513], in the data set with hACE2 [7], the IC50 is 90 nM and the Ki was 126 nM. The Kd with hACE2 [8] is 170 nM.
Consider GDRLHCKPQRQSPWMKCQHLDP [DX512], for which, in the data set with hACE2 [7], the half-inhibitory concentration (IC50) was 60 nM and the Ki is 139 nM. Besides, in the data set with hACE2 [8], the Kd is 96 nM.
With GDRYLCLPQRDKPWKFCNWFDP [DX599], in the data set with hACE2 [7], the IC50 was 114 nM and the Ki is 46.5 nM. Further, the Kd with hACE2 [8] is 48.6 nM.
